Measured values taken from paper PMC3486911 (PLoS Pathogens, 2012).
Values joined by “and” are separate entries in the source; they are usually repeats but may differ in a detail not shown here. Equal values may be shown once.

Columns and labels:
Experiment in all cases: SPR
[1] = target: V1 fHbp (V1.p1), wild type (Neisseria meningitidis) (UniProt Q9JXV4)
[2] = target: V3 fHbp (V3.p28), wild type (Neisseria meningitidis) (UniProt E6MV22)
[3] = target: V3 fHbp Ala99Glu (Neisseria meningitidis)
[4] = target: V3 fHbp Asn123 mutant (to Ala) (Neisseria meningitidis)
[5] = target: V3 fHbp Asn48 mutant (to Ala) (Neisseria meningitidis)
[6] = target: V3 fHbp Asp126 mutant (to Ala) (Neisseria meningitidis)
[7] = target: V3 fHbp Asp43 mutant (to Ala) (Neisseria meningitidis)
[8] = target: V3 fHbp Asp92 mutant (to Ala) (Neisseria meningitidis)
[9] = target: V3 fHbp Gln134 mutant (to Ala) (Neisseria meningitidis) (UniProt E6MV22)
[10] = target: V3 fHbp Gln87 mutant (to Ala) (Neisseria meningitidis) (UniProt E6MV22)
[11] = target: V3 fHbp Gly49 mutant (to Ala) (Neisseria meningitidis) (UniProt E6MV22)
[12] = target: V3 fHbp His190 mutant (to Ala) (Neisseria meningitidis)
[13] = target: V3 fHbp Ile122 mutant (to Ala) (Neisseria meningitidis)
[14] = target: V3 fHbp Ile89 mutant (to Ala) (Neisseria meningitidis) (UniProt E6MV22)
[15] = target: V3 fHbp Ile96 mutant (to Ala) (Neisseria meningitidis)
[16] = target: V3 fHbp Leu117 mutant (to Ala) (Neisseria meningitidis)
[17] = target: V3 fHbp Leu98 mutant (to Ala) (Neisseria meningitidis)
[18] = target: V3 fHbp Lys127 mutant (to Ala) (Neisseria meningitidis)
[19] = target: V3 fHbp Lys32 mutant (to Ala) (Neisseria meningitidis)
[20] = target: V3 fHbp Pro125 mutant (to Ala) (Neisseria meningitidis)
[21] = target: V3 fHbp Pro46 mutant (to Ala) (Neisseria meningitidis)
[22] = target: V3 fHbp Ser44 mutant (to Ala) (Neisseria meningitidis)
[23] = target: V3 fHbp Thr128 mutant (to Ala) (Neisseria meningitidis)
[24] = target: V3 fHbp Val114 mutant (to Ala) (Neisseria meningitidis)
[25] = target: V3 fHbp Val91 mutant (to Ala) (Neisseria meningitidis)
[26] = target: V1 fHbp Gln193-Ala (Neisseria meningitidis)
[27] = target: V1 fHbp His203-Ala (Neisseria meningitidis)
[28] = target: V2 fHbp Gln191 mutant (to Ala) (Neisseria meningitidis)
[29] = target: V2 fHbp Glu262 mutant (to Ala) (Neisseria meningitidis)
[30] = target: V2 fHbp Lys268 mutant (to Ala) (Neisseria meningitidis)
[31] = target: V2 fHbp Val196 mutant (to Ala) (Neisseria meningitidis)

Substance: human factor H CCP 6 and 7 (fH67) (domain or fragment)
- Kd [1]: 2 nM and 2.1 nM
- Kd [2]: 2.4 nM and 2.3 nM
- Kd [3]: 79 nM and 70 nM
- Kd [4]: 7.4 nM and 8.6 nM
- Kd [5]: 3.6 nM and 3.7 nM
- Kd [6]: 6.3 nM and 6.5 nM
- Kd [7]: 3 nM and 3.4 nM
- Kd [8]: 4.7 nM and 4.8 nM
- Kd [9]: 2.6 nM and 2.7 nM
- Kd [10]: 0.71 nM and 0.72 nM
- Kd [11]: 3 nM
- Kd [12]: 3.4 nM and 3.3 nM
- Kd [13]: 9.4 nM and 11 nM
- Kd [14]: 38 nM
- Kd [15]: 14 nM and 15 nM
- Kd [16]: 5.2 nM
- Kd [17]: 86 nM and 88 nM
- Kd [18]: 2.9 nM and 3 nM
- Kd [19]: 3 nM
- Kd [20]: 3.2 nM and 3.4 nM
- Kd [21]: 0.026 nM and 0.03 nM
- Kd [22]: 10 nM and 9.8 nM
- Kd [23]: 4 nM and 4.4 nM
- Kd [24]: 3.2 nM and 3.3 nM
- Kd [25]: 5.6 nM and 6.5 nM
- Kd [26]: 5.3 nM and 4.2 nM
- Kd [27]: 1.4 nM and 2 nM
- Kd [28]: 2.7 nM and 2.5 nM
- Kd [29]: 5.6 nM and 5 nM
- Kd [30]: 2.3 nM and 2.2 nM
- Kd [31]: 32 nM and 14 nM
